The text below walks through data of patent US20200347138A1 (INDIAN INSTITUTE OF SCIENCE, published 2020).

One assay addresses T1, MAb B52/28.
T1 construct: hCG heterodimer specific monoclonal antibody used in the RIA
Description: RIA: unlabelled hormone displaces 125I-hCG from MAb 52/28 [left panel (A].

The target in another assay is T2, human DEC205 (human, UniProt O60449 28-1722).
T2 construct: also called hDEC205; CHO/hDEC205
Description: flow cytometry on CHO/hDEC205 cells, hCG a/s and anti-rabbit IgG-FITC. On the technique in general: In flow cytometry, cells or beads pass a laser one at a time.

T2 sequence (O60449 28-1722 K1321N/Y1391H limits assumed): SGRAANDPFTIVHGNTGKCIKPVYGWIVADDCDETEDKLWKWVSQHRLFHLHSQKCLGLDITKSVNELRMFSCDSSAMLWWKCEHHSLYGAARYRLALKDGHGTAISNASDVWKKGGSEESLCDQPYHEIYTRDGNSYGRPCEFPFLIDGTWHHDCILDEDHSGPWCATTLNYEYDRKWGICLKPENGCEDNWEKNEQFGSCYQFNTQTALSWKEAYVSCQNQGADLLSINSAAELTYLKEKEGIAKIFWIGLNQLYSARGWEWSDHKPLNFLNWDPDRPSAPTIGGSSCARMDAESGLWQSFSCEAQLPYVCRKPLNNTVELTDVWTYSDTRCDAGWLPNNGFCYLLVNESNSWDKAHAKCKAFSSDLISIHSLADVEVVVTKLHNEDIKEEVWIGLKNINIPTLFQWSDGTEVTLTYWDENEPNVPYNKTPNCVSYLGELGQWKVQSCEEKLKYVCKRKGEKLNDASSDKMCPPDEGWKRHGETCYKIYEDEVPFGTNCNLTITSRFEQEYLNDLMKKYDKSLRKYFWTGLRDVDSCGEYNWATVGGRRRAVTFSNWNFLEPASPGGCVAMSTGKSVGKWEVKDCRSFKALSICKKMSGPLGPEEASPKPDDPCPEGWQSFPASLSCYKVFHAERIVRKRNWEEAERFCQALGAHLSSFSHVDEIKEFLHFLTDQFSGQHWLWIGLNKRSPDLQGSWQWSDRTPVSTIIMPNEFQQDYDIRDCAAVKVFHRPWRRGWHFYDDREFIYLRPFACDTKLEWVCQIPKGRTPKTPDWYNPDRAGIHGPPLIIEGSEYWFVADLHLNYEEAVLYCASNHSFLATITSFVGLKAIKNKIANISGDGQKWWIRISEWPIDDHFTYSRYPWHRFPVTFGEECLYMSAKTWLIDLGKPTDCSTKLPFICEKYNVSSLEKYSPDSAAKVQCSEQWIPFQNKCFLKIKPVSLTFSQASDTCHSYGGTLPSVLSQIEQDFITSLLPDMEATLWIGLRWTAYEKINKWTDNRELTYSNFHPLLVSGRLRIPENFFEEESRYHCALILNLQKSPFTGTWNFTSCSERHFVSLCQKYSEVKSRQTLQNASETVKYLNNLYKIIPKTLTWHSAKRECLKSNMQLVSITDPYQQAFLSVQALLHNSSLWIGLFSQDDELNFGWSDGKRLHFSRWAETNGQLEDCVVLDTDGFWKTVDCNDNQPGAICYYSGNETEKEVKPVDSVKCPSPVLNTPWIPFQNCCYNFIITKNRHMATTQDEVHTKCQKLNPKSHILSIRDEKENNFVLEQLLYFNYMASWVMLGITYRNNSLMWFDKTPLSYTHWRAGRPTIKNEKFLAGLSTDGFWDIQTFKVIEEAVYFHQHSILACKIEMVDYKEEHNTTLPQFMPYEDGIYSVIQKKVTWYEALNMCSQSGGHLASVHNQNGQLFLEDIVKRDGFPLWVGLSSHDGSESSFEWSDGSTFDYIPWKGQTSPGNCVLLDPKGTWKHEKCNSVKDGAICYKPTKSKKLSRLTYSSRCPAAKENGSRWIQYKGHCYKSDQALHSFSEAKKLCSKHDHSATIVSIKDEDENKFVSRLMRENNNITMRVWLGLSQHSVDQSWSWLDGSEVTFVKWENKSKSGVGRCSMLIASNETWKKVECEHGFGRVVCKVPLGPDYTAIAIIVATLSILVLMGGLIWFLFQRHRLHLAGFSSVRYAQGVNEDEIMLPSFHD
Description for MAb B52/28: The antigen-antibody complexes formed were precipitated by adding an appropriate dilution of the normal mouse/rabbit serum, and goat anti-mouse/rabbit IgG followed by addition of 2.5% PEG. The tubes were centrifuged at 4,000 g for 20 minutes at 4 □, the supernatant was discarded and the radioactivity in the pellet was counted in Perkin Elmer γ-counter. The non-specific binding was determined by carrying out binding experiments in the absence of the primary antibodies.
The biotin tagged hormonal antigens were analyzed by RIA using hormone specific antibodies (52/28 for hCG and FSH a/s for hFSH) for their ability to retain their immunodominant epitopes. […] The NIH iodination grade hCG and hFSH were used as the standard reference preparations in the RIA and were used for comparing the bioactivity of these hormonal antigens.
Description for human DEC205: The ability of ScFv to load antigen onto the human DEC205 was checked by flow cytometry.
The complex was incubated with CHO/hDEC205 cells for one hour at 4□ followed by incubation with hCG a/s and subsequently with anti-Rabbit IgG FITC and binding was analyzed by flow cytometry.

B1: biotin tagged recombinant human chorionic gonadotropin (ligand)
chain 1: not shown
chain 2: SKEPLRPRCRPINATLAVEKEGCPVCITVNTTICAGYCPTMTRVLQGVLPALPQVVCNYRDVRFESIRLPGCPRGVNPVVSYAVALSCQCALCRRSTTDCGGPKDHPLTCDDPRFQDSSSSKAPPPSLPSPSRLPGPSDTPILPQ
modifications: biotin by Sulfo-NHS-LC Biotin on the hormone, sites not stated
notes: also called biotin-hCG
As for B1, in the assay with MAb B52/28, the “IC50 (read off the curve)” value is about 6 ng/tube. In the assay with human DEC205, the binding result is “no binding”.
